{
  "source": "paper PMC10918641",
  "about": "(Biomaterials, 2023)",
  "molecules": {"B1": {"name": "OVA-PEG: OVA conjugated to PEG via urethane linkage (conjugate, UniProt P01012 2-386, looked up)", "Ovalbumin": "GSIGAASMEFCFDVFKELKVHHANENIFYCPIAIMSALAMVYLGAKDSTRTQINKVVRFDKLPGFGDSIEAQCGTSVNVHSSLRDILNQITKPNDVYSFSLASRLYAEERYPILPEYLQCVKELYRGGLEPINFQTAADQARELINSWVESQTNGIIRNVLQPSSVDSQTAMVLVNAIVFKGLWEKAFKDEDTQAMPFRVTEQESKPVQMMYQIGLFRVASMASEKMKILELPFASGTMSMLVLLPDEVSGLEQLESIINFEKLTEWTSSNVMEERKIKVYLPRMKMEEKYNLTSVLMAMGITDVFSSSANLSGISSAESLKISQAVHAAHAEINEAGREVVGSAEAGVDAASVSEEFRADHPFLFCIKHIATNAVLFFGRCVSP", "modifications": "PEG 10K conjugate"}},
  "test_system": "C57BL/6J mice",
  "conditions": "mouse, in vivo",
  "data": [
    {"molecule": "B1", "values": [
      {"measurement": "PEG-specific IgM titer relative to Ex-PEG", "value": "~ 60 fold"},
      {"measurement": "anti-OVA IgG titer", "value": "lower titers of anti-OVA IgG than unmodified OVA"},
      {"measurement": "magnification of anti-OVA and anti-PEG responses by CFA/IFA emulsions", "value": "~ 2 fold"}
    ]}
  ]
}
